Data reported in patent publication US20240026407A1, “MODIFICATION OF SAPONINS” (GLAXOSMITHKLINE BIOLOGICALS SA, priority 2020, published 2024).

Tests used:
Assay type in all cases: biochemical, Quillaja saponaria
[1] = Experiment 6-1: specificity of rhamnosidases towards other rhamnose residues (C3 saccharide rhamnose, C28 saccharide rhamnose); conditions: TBE 2%, pH 7.5, 30 degC, 18 h; LCMS/MS; negative controls 0.18, 0.17
[2] = Experiment 6-1: screening of rhamnosidases for derhamnosylation of saponins in treated bark extract (2%), desglucosyl-QS-17 2134 to QS-21 1988 (PAR %); conditions: TBE 2%, pH 7.5, 30 degC, 18 h; TIC peak area ratio percent, LCMS/MS; negative controls 2.719, 2.158
[3] = Experiment 6-1: screening of rhamnosidases for derhamnosylation of saponins in treated bark extract (2%), QS-17 2310 to QS-18 2164 (PAR %); conditions: TBE 2%, pH 7.5, 30 degC, 18 h; TIC peak area ratio percent, LCMS/MS; negative controls 3.061, 2.429
[4] = Experiment 6-1: screening of rhamnosidases for derhamnosylation of saponins in treated bark extract (2%), QS-17 2296 to QS-18 2150 (PAR %); conditions: TBE 2%, pH 7.5, 30 degC, 18 h; TIC peak area ratio percent of rhamnosylated starting saponin to derhamnosylated product, LCMS/MS; negative controls 4.876, 5.225
[5] = Experiment 6-3: screening of rhamnosidases for derhamnosylation of saponins in crude bark extract (80%), relative % of Left, Middle and Right Peak by UV HPLC; conditions: CBE 80%, pH 7.4, 30 degC, 19.5 h
Procedure: Selected variants were expressed and lysed as in the method of experiment 6-1.
Crude bark extract (CBE) solution was adjusted to pH 7.4 by addition of NaOH (2M). 20 uL clarified lysate was transferred into fresh 96 well PCR plates. 80 uL CBE solution (pH 7.4) was added to each well of lysate to a final concentration of 80%. Plates were incubated at 30 degC with shaking for 19.5 h.
Quenched with 100 uL MeCN+2% AcOH and shaken at room temperature for 10 mins prior to centrifugation (10 min, 4 degC) to remove particulates. Samples were analysed by UV HPLC using method of Experiment 4-4.
Three key peaks of interest are apparent using this chromatography: Left Peak (retention time approximately 2.30-2.35 min) comprising mainly QS-17 family components; Middle Peak (retention time approximately 2.37-2.42 min) comprising mainly QS-18 family components and desglucosyl-QS-17 family components; and Right Peak (retention time approximately 2.44-2.50 min) comprising mainly QS-21 family components. Peak identity was supported by MS/MS.
Enzyme mediated hydrolysis of the alpha-O-rhamnosylation at the C2 position of the arabinofuranose moiety of QS-17 family components leads to a decrease in Left Peak and an increase in Middle Peak due to formation of QS-18 family components. Enzyme mediated hydrolysis of the alpha-O-rhamnosylation at the C2 position of the arabinofuranose moiety of desglucosyl-QS-17 family components leads to a decrease in Middle Peak and an increase in Right Peak due to formation of QS-21 family components.
The relative percentage of each peak was determined. A decrease in Left Peak and a concomitant increase in Middle Peak and Right Peak is observed for enzymes active under these conditions.

[6] = Experiment 6-2: screening of rhamnosidases for derhamnosylation of saponins in treated bark extract (25%), relative % of Left, Middle and Right Peak by UV HPLC; conditions: TBE 25%, pH 7.4, 19.5 h
[7] = mainly QS-21 family, negative control 26%

B1: 1068 (protein, listed as Pedobacter heparinus)
chain: MINQIFKFSFFALNLLAWYSFTAKSQDLKVFDKATSWITCDKAQDQSNSWIAFRKVVQLDEKPVKALLDISVDSKYWLYINEKLVVFEGGLKRGPNPDDTYYDEADLTEYLKAGTNTIAVLLWYFGKNGFSHHSSGRAGMFFQLDMDKQGKICSDRSWKCSVVPAYLNVYSGDQPNYRLAESNVIYDARLALGDWTSASYNDKTWRNPFVVGPAGCMPWNKLVKRPIPQWKDYGIVNFNLNFPFNATGDTIKVKLPYNAQFTPYLKVEATAGKTIEMFTDNYSGGSENNVRAEYITKTGIQEYESFGWMNGHVMMFVIPKGAKVLSLGYRETGYHTTFAGSFNCNDAFYNKLWEKSSRTLYVNMRDSYMDCPDRERAQWWGDEVTEMTQSFYALDPDANLLAKKGIDELTGWQRSDGVLFSPIPAGNFDLELPVQMLTSVGYYGFWTYYYYTGDLETIRAAYPSIRKYLSLWEMDKNGLVISRTGGWNWGDWGKNVDIDLMSNAWYYLACKGYLEMSKTLNHAEEIKWAENQMSVMKKSFDTRFWTGKAYRSPDYKGQTDDRSNALAVLAGLTAPAKYPLLKDVFLTEEHSSPYMEKYVLEALFKMGYADIALERLKKRYTAMVDSELTTLWEGWKIGVNGYGGGSYNHAWSGGGLILLSRFVAGIEPASPGYETVKIAPQMGSLINCSATVSSVAGLIAVKNTFTNEKEFNQLIESPSPLKIYFPFEVYRIKKIRVNNKKLSEALMLKFKNEGKLELSKGKYKLTVNIN
- ratio PP/QS-21 [1]: 0.17
- Peak75 (PAR %) [2]: 2.370%
- Peak57 (PAR %) [3]: 3.156%
- QS-17 (PAR %) [4]: 5.521%

B2: 1021 (protein, listed as Paenibacillus sp.)
chain: MLQPYAPAIKNYYSAIGIDTPKPIFVWKLSSPLRNQKQTHYRITVAENAESLEEENNLLWDSGKVASDEQLGVMYKGSPLESTSRYCWRVAIWDSSGQSLWSEVQYFITGYLNSEHWSAKWIGDGSDAPFYARYEFDLNKKVKQAFALVSGLGQFKFYMNGRQVGDHEMDPGWTNYHKSVQYVGFDITDHLQSGKNAVGLHVGNGFFAGASGGRHFYTMDKGYEPYGDQLVAIGEWHIEFEDGSRIILRTGEEGWKVHESATTLANVYGSENFDARLYPDGYHVPGFDDSGWKPAQLLKPPAGNLVQQNQPPVKVKQVYDTLSVAEPLPGVYVFDLGQNMAGMFEIYASGPAGSKVIIKPGELMREDGTIATPWDIVTYSEFILAGTGEVEVWKPDFSYYGARWVQIEGCTRDEADTGRPMIHDVKGHFITSASQDTGTLSTDDVRIDKLADIITKAIESNLQSVHTDCPTIEKLGWLEASALMGPSIVYVKQAEELFLKIVRDMMEAQTEEGLIPDIAPEYSLFPDGFRDSIAWGIALLMVPDLLLERYNNFTAIEVAYPAMKRYMDYLKSKEIHDGLIGHGLGDWGIQPQTGGDYIENVETAFYYEGYRLMAKFAGILGFTDELEDYSAEAERIKLNYNKQLLHSLPENSPRYAYCKLGGQFDPANQVVQAIPLAFNLVPEEQLHNVEHALLQAVASRQFHSGEIGLRYLFLALSRLNRNDIVLDMMMQPEHPSYIRFVERGETSLPEFWTDEARSRNHDMMGHILEWLYKELLGISSASGAYKEILIAPFRSGRVKRVKGVHHSIRGEIGVEFSHSAEEIILNVQIPANTTATLQIPLLHGESQLYERGTRVLYEPFNQGAQIYARLKIGSGSYSYVNRV
- ratio PP/QS-21 [1]: 0.16
- Peak75 (PAR %) [2]: 2.296%
- Peak57 (PAR %) [3]: 3.148%
- QS-17 (PAR %) [4]: 5.476%

B3: 999 (protein, listed as Prevotella ruminicola)
chain: MRKFLTIICVACCYASATFAQAWPQPKPEAKPGTRWWWLGSAVNQRDLQWNLQEYARAGIGAVEITPIYGVKGNDANNIAYLSPQWMQALQSVQDIARPLGIEVDMNCGTGWPFGGPHISLDQAACRAIIKDTIINGKHQYEVEIGHTKQKVKRAAPGGEGWVVDHFDRNAVAHYLDRFEQAFATSGVPYPHTFFNDSYEVYKADWTPTLFDEFQKRRGYDLRTKLPELLGKVDDGNQTLADYRETLSDMLLENFTQQWVAWAHKHGVKVRNQAHGSPANLLDLYAAVDIPEIEGFGLSEFGIKGLRTDPGKTRKNDSDVSMLKYASSAAHVMGKPFTSSETFTWLTEHFRTSLSQMKPDLDLMFTCGVNHVYFHGSCYTPQNAAWPGWKFYASVDMSPTNSIWRDAPFLMKYIERSQSFLQLGEPDNDFLVYLPVRDMWHQRDNNNTLLMQFDIHSMAKKAPQFIRSILTIDSLGYDCDYISDRQLAKVRMQDGMLVTEGGTRYKALIIPSGTTIDASLQAQINRLNAYVIRGEQAADMAKFAKAEQMKTTYGLRAIRRHTADGWHYFIVNLTPKDITGDVTLAVPFESATWFNPMNGDIQPAEVHNGQLHIALKSGESRILQTSNQPSTNITTTASGTEEITLQGPWVLSFTDESPRVEGTFKLNKLQTWETLSDSAAVTMGTGVYTTSIKLSAQQAKQHWQIDLGDVRESARVYINSQFVGCAWAVPFILDCGNTLHKGKNEIRIEVTNLPANRIAELDRKGVQWRKFNEINVVDINYKNTTYADWKPVPSGLNTTVKLVR
- ratio PP/QS-21 [1]: 0.16
- Peak75 (PAR %) [2]: 2.571%
- Peak57 (PAR %) [3]: 2.714%
- QS-17 (PAR %) [4]: 5.614%

B4: 1025 (protein, listed as Bacteroides xylanisolvens)
chain: MKKDYMKYQQNSKREEKSKFITNQLTNMAHISIRSYLYLLGTTLFSCAPQELKTPFELKCENIPVPVGVDTQTPRLSWKLPLLEEDSINRVEIWLSTDSTQLSGRQSGYWNKSIIGAPIRVSYDGQPLDSYTTYYWKIGYQTSSKQKTTFSPISSFTTGCLSPDNWKGKWITDKHDITYRPAPYYRKSFQLDKTIEQALLTIASAGLHELSVNGQRAGNHFLDPMYTHFDKRILSVTHDVTSLLSLGENVIGVQLGNGWYNHQSTAVWFFDKASWRNRPKFTAQLHLRYTDGTTEYLGTDSTWQTTDSPVIFNSIYTAEHYDAQKELAGWDSPGFNATGWYHAQETESPTETIKSQVMHPIRETARYTATQCKKINDSCYVYHFPKNIAGVTELKVKGKKGTKLRLKHGELLDKNGMVNMANIDYHYRPTDDSDPFQTDIVILSGKQDRFMPKFNYKGFQFVEVSSSAPIQLSDENLIAVEMHSDIPAIGYWSSSSDLLNKIWKATNSSYLANLFGYPTDCPQREKNGWTGDAHITIETGLYNFDGISIYEKWMNDFCDEQKDNGILPCIIPTSVWGYDWANGVDWTSAVAIIPWEIYRFYGDTTLLRRMYGPIKKYVSYIESISTNHLTDWGLGDWVPVRSKSNITLTSSIYYYTDVCILAKAARLFGYAEDASYYNTLAQKIKEAINTSFLNKETGIYAEGTQTELAMPLYWGIVPEEDKKKVAARLHELVEKDDYHLDVGLLGSKALLSAMSDNGYAETAYKVASQDTYPSWGVLDQTRCYNST
- ratio PP/QS-21 [1]: 0.18
- Peak75 (PAR %) [2]: 2.330%
- Peak57 (PAR %) [3]: 2.933%
- QS-17 (PAR %) [4]: 5.495%

B5: 1055 (protein)
chain: MRKAMILLTACLLSGTSALAADTLRDGFQTPPDSAKPRVWWHWLGNNVTADGIDKDLAWMRRVGIGGFQLFSGNLETPLLVDKPVVVFSPEWRAMVRHAAERADALGLEMTMAASAGWSETGGPWVKPEQAMKKLVWSETVITGAKRFQGRLPSPPTGNGPFQDMPMPPELRLPPPPPVPGARPRPPAAAHGPSPSYYADVAVVAYRLPDAVVPLGSLKPRISSSAGDAAILSDGRYDAPLRLEQKTPDGQLAWVEYTFDKPVSLPAVTLAATIEDPLNALSPSGVVEVADENGTFRDLVRVAPQEPVAFPAAAPVRTVALPEASSRRWRFRLDPIPPQALALPGMPQQTVHAVTELRFETEAMVDRWQAKAAYDTMRSYDTGPQPVRPVPARDQVVNLTARIGADGTLDWTPPPGRWQVLRIGYSLTGAKNHPADPEGTGFEVDKLDAAAVRAYLEGYLGPIDQALGDLRGAKGLKNLLTDSWEAGQANWTPALPAEFKRRRGYDLTPWLPVLTGRVVGSAADSERFLWDFRRTIADLLAEAHYKTIRDFAHEKGLGYYGEAMGTRLPTTGDGLLNKRYTDIPMGEFWQMPPGAPSDPAHTSDIAEAASAAHFYGQNLVAAEAFTALPFMPPFTATPAALKPFADRFLARGVNRFVIHTSVHQPSDDLRPGITLGPFGQYFTRHETWAEQAGAWMSYLSRSSYLQQQGRHVADIAWFVGEGGAISAPDPDRLSPALPKGYRLDFVARDAVTELLSVKDGHLLAPSGVVYRLLVVPPDARSGDLKLSLAVLRRLRDLLNQGAAVLAPRPTGSTSLSDDPAQVAALIGELWGVDTPIPRSIGKGRLYPAPDIAAALADRGVAPDLTMAGAMDADIVWSHRRTDDADIWFVANQKDRAESVTLSLRGDGRDVSLWHADSGAVEPAPFRQEAGRTSVPLTLSPNQAIFIVQRGSAPATARDVATPVEAESLALSGVWTLFFPKGQAMPDSVPLPKLGLWNDMSDPAVRHFSGTATYATEVKLPAAWAGKPVWIDLGAVHEVATVRVNGTEAGIAWKQPYRIDVGPLLKAGTNKLEVAVSNLWPNRIVGDAGGAGGVRVTTNTHPLLHPDTKARLLPSGLAGPVRLVRMELPGGNG
modifications: alpha proteobacterium
- ratio PP/QS-21 [1]: 0.19
- Left Peak ([5]; mainly QS-17 family, negative control 27%): 25%
- Middle Peak ([5]; mainly QS-18 and desglucosyl-QS-17 family, negative control 48%): 48%
- Right Peak [5, 7]: 27%
- Peak75 (PAR %) [2]: 0.000%
- Peak57 (PAR %) [3]: 0.000%
- Left Peak ([6]; mainly QS-17 family, negative control 24%): 7%
- Middle Peak ([6]; mainly QS-18 and desglucosyl-QS-17 family, negative control 50%): 62%
- Right Peak [6, 7]: 31%
- QS-17 (PAR %) [4]: 0.019%
